Assay results from paper PMC7711741.
Like-named read-outs stand apart in the source and are kept apart here. Values belong to the substance of their own block, whether it stands above or below them.

How the values were obtained:
[1] = target: mupain-1 (synthetic construct)
[2] = target: mupain-1 (synthetic construct); details: cited from earlier work
[3] = target: mupain-1 (synthetic construct); details: cited from earlier work; remark: listed apart in the source
[4] = target: mupain-1 (synthetic construct); details: cited from earlier work; remark: listed apart in the source
[5] = target: mupain-1 (synthetic construct); details: cited from earlier work; remark: listed apart in the source
[6] = target: mupain-1 (synthetic construct); details: cited from earlier work; remark: listed apart in the source
[7] = target: mupain-1 (synthetic construct); remark: listed apart in the source
[8] = target: mupain-1 (synthetic construct); experiment: SPR
[9] = target: mupain-1 (synthetic construct); remark: listed apart in the source
[10] = target: urokinase-type plasminogen activator (muPA) (Mus musculus) (UniProt P06869); details: cited from earlier work
[11] = target: mupain-1 (synthetic construct); details: cited from earlier work; remark: listed apart in the source

plasma kallikrein, P03952, sequence (P03952 391-638): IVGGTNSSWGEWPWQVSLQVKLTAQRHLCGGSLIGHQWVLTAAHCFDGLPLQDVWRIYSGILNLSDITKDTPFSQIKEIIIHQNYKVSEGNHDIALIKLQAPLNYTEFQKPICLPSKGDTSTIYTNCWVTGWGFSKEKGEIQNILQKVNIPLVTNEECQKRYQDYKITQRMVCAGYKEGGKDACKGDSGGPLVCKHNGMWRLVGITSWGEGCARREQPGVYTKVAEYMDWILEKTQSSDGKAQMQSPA
plasma kallikrein, P26262, sequence (P26262 391-638): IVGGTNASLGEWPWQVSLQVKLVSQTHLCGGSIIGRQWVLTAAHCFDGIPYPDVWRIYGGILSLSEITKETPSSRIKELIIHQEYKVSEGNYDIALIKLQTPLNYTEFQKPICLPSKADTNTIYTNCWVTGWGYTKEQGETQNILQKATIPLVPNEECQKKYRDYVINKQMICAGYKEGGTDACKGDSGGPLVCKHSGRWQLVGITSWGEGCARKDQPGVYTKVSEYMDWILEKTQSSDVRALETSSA
urokinase-type plasminogen activator, sequence (P06869 157-178): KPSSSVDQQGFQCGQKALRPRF
factor XIa catalytic domain, sequence (P03951 388-625): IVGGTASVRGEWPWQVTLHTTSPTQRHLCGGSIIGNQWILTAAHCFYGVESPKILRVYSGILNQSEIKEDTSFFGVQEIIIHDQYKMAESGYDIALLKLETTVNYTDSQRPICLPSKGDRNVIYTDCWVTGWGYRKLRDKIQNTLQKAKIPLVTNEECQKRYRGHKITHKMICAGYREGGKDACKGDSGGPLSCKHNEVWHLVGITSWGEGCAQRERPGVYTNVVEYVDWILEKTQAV
beta-trypsin, sequence (P00760 24-246): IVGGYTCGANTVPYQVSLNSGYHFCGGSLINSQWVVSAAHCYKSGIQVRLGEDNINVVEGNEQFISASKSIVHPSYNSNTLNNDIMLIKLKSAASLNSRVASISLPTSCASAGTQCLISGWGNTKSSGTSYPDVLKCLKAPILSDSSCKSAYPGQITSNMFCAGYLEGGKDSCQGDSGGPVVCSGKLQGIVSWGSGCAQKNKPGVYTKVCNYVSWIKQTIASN
urokinase-type plasminogen activator (muPA) (Mus musculus), sequence (P06869 180-433): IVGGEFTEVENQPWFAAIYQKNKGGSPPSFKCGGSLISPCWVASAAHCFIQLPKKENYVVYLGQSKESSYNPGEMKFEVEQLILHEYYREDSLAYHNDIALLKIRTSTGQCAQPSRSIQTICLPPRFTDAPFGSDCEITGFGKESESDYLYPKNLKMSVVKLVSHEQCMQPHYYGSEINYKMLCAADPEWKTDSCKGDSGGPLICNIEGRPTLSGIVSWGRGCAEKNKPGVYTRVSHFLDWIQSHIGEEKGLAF
plasmin (from UniProt P00747), sequence (P00747 581-810): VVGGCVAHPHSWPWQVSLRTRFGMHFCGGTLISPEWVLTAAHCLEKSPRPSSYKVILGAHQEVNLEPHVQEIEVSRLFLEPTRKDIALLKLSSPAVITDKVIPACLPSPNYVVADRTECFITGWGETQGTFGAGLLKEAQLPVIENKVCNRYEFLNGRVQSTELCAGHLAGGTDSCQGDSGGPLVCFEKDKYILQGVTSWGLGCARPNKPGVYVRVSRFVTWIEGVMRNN
plasmin (from UniProt P20918), sequence (P20918 582-812): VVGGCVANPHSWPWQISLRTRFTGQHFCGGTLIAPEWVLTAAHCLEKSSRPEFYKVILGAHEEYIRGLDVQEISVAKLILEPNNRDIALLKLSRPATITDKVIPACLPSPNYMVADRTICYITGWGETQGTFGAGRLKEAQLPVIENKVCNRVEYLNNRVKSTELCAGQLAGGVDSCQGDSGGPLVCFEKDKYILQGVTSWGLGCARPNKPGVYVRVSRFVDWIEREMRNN

- Ki [1]: > 1000 µM
Substance: KLK1, P06870

Substance: plasmin (from UniProt P00747)
- Ki [2]: > 1000 µM

Substance: urokinase-type plasminogen activator (from UniProt P00749)
- Ki [3]: > 1000 µM

Substance: plasmin (from UniProt P20918)
- Ki [4]: > 1000 µM

Substance: beta-trypsin (from UniProt P00760)
- Ki [5]: 20.7 µM

Substance: urokinase-type plasminogen activator (from UniProt P06869)
- Ki [6]: 0.55 µM

- Ki [7]: > 1000 µM
Substance: plasma kallikrein, P26262

- Kd [8]: > 1000 µM
- Ki [9]: > 1000 µM
Substance: plasma kallikrein, P03952

Substance: mupain-1
- Ki [10]: 0.55 µM

Substance: factor XIa catalytic domain (from UniProt P03951)
- Ki [11]: > 1000 µM
